Common to all, as to assay: cells, lysate or membranes named
Substrate in series [1]: O=[N+]([O-])c1ccc(O)cc1
As to conditions: 1 mM NADPH, 37°C, pH 7.4.

Substrate in series [2]: C=Cc1ccccc1
As to conditions: pH 7.4; 37.0 °C.

Substrate in series [3]: Nc1ccccc1
As to conditions: 1 mM NADPH, 37°C, pH 7.4.

[4] abbreviates: other: rat liver mitochondria 2 mg/mL.
Where [5] appears, read: other: rat liver microsomes 0.5 mg/mL.

B1: mtCYP2E1 (Rattus norvegicus) (protein)
chain: AVLGITIALLVWVATLLVISIWKQIYNSWNLPPGPFPLPILGNIFQLDLKDIPKSFTKLAKRFGPVFTLHLGSRRIVVLHGYKAVKEVLLNHKNEFSGRGDIPVFQEYKNKGIIFNNGPTWKDVRRFSLSILRDWGMGKQGNEARIQREAQFLVEELKKTKGQPFDPTFLIGCAPCNVIADILFNKRFDYNDKKCLRLMSLFNENFYLLSTPWIQLYNNFADYLRYLPGSHRKIMKNVSEIKQYTLEKAKEHLQSLDINCARDVTDCLLIEMEKEKHSQEPMYTMENVSVTLADLFFAGTETTSTTLRYGLLILMKYPEIEEKLHEEIDRVIGPSRVPAVRDRLDMPYMDAVVHEIQRFINLVPSNLPHEATRDTVFQGYVIPKGTVVIPTLDSLLYDSHEFPDPEKFKPEHFLNENGKFKYSDYFKAFSAGKRVCVGEGLARMELFLLLSAILQHFNLKSLVDPKDIDLSPVTVGFGSIPPQFKLCVIPRS
Regarding B1, the Km in series [1] (setting [4]) is 28 (24 to 33) μM; in series [2], 45 (36 to 56) μM; in series [3] (setting [4]), 10 (7.5 to 12) μM. For the same protein, the kcat was 110 (100 to 110) pmol/min/pmol CYP2E1 in series [1] (setting [4]) and 52 (49 to 54) pmol/min/pmol CYP2E1 in series [3] (setting [4]).

B2: erCYP2E1 (Rattus norvegicus) (protein)
chain: MAVLGITIALLVWVATLLVISIWKQIYNSWNLPPGPFPLPILGNIFQLDLKDIPKSFTKLAKRFGPVFTLHLGSRRIVVLHGYKAVKEVLLNHKNEFSGRGDIPVFQEYKNKGIIFNNGPTWKDVRRFSLSILRDWGMGKQGNEARIQREAQFLVEELKKTKGQPFDPTFLIGCAPCNVIADILFNKRFDYNDKKCLRLMSLFNENFYLLSTPWIQLYNNFADYLRYLPGSHRKIMKNVSEIKQYTLEKAKEHLQSLDINCARDVTDCLLIEMEKEKHSQEPMYTMENVSVTLADLFFAGTETTSTTLRYGLLILMKYPEIEEKLHEEIDRVIGPSRVPAVRDRLDMPYMDAVVHEIQRFINLVPSNLPHEATRDTVFQGYVIPKGTVVIPTLDSLLYDSHEFPDPEKFKPEHFLNENGKFKYSDYFKAFSAGKRVCVGEGLARMELFLLLSAILQHFNLKSLVDPKDIDLSPVTVGFGSIPPQFKLCVIPRS
On to B2, for which the Km in series [1] (setting [5]) is 28 (24 to 34) μM; in series [2] it was 100 (31 to 2600) μM; in series [3] (setting [5]) it was 2.1 (0.010 to 5.2) μM. Also, the kcat in series [1] (setting [5]) is 940 (880 to 1000) pmol/min/pmol CYP2E1.

These data come from publication PMC4658230.
